# Data reported in the supplement of paper PMC10065799, “High-throughput profiling of sequence recognition by tyrosine kinases and SH2 domains using bacterial peptide display” (eLife, 2023).
# Target: Hck (UniProt P08631)
# Assay: phosphorylation enrichment, bacterial display (enrichment ratio); higher = better substrate or ligand; peptides without Tyr show the background
# 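Further: 11-residue human phosphosite peptides and single-mutation variants displayed on the E. coli surface, counted by deep sequencing, each peptide's frequency after selection divided by its frequency in the unselected input library; frequency after pTyr selection over input frequency; kinase dosed for 20-30% of maximal phosphorylation in three min.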
# Sequence of Hck (P08631 whole entry, looked up): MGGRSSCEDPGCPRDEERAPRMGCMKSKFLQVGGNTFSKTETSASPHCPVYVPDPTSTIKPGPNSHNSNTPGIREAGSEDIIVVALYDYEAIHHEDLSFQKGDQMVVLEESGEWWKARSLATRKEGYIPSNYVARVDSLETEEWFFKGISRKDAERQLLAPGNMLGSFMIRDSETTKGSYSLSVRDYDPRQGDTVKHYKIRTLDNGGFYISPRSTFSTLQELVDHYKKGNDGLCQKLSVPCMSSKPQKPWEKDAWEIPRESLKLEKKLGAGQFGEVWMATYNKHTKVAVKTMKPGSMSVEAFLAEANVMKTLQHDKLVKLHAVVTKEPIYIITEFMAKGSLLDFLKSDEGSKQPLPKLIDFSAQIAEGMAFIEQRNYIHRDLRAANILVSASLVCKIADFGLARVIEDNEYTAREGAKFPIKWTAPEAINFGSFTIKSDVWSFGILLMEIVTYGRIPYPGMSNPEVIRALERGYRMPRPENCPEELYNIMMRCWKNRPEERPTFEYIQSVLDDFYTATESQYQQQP
row,Sequence,phosphorylation enrichment
1,KKFVPYFDLFM [IPO5_Y530_E525K_YF],0.571
2,PDNKPYIFKVF [PIK3AP1_Y553_E551K],0.619
3,LAVVDYIRRQK [ATM_Y1915_M1916I],0.749
4,LDAFIYDAALL [GRIN2A_Y730_V734L],7.57
5,TFWKKYCTFWK [CCDC70_Y125_R126C],0.38
6,FITVGYVDDTQ [HLA-B_Y51_S48T],0.517
7,KHGGNYVPAPK [OSCP1_Y237],0.529
8,QNVADYMRYLM [RPL5_Y207],0.736
9,NFATLYLKIFH [PDE6B_Y219_YF],0.497
10,LKLWDYSRGRC [WDR5B_Y239],0.451
11,HHTNEYEFDEL [TGM1_Y134_D132N_YF],0.719
12,YAANYYKLLGN [ROR2_Y646_D644N],0.406
13,TIQIMFGCDVG [HLA-A_Y123_Y123F],0.619
14,EPFKVYRIVPE [IRF8_Y110_YF],0.4
15,PLQHVYKIGGI [EEF1A2_Y254_D252H],0.865
16,VPLATYMQIFK [RPL21_Y30_R32Q_YF],1.8
17,GCKKRYDKDKP [THAP1_Y14_N12K],0.452
18,RAFSWYQHQRA [NDST1_Y714_YF],0.611
19,FLRTGYSVPFG [TGM1_Y370_YF],0.461
20,NMHSTYAKLAA [SEC22B_Y193],0.948
21,ISHVAYCVLGK [TRRAP_Y892_R893C],1.09
22,DFTEAYNSKIK [CLK1_Y305_P307S_YF],0.526
23,TYEYKYPEGSS [TGM4_Y440],0.449
24,SGPRRYTVAAL [TTR_Y125_I127V],0.429
25,TRGLEYIVPLM [CLCN4_Y548_G544R],0.493
26,CPYNLYAAQLS [HGD_Y40_E42A],3.08
27,TRDVNYGWVIR [MT-CYB_Y75_I78V],0.806
28,QEGPEYWDLET [HLA-A_Y83_Q86L],0.978
29,RRSKMYLKTRS [LPL_Y329_S325R],0.602

# Target: Jak2 (UniProt O60674)
# Assay: as above
# Sequence of Jak2 (O60674 whole entry, looked up): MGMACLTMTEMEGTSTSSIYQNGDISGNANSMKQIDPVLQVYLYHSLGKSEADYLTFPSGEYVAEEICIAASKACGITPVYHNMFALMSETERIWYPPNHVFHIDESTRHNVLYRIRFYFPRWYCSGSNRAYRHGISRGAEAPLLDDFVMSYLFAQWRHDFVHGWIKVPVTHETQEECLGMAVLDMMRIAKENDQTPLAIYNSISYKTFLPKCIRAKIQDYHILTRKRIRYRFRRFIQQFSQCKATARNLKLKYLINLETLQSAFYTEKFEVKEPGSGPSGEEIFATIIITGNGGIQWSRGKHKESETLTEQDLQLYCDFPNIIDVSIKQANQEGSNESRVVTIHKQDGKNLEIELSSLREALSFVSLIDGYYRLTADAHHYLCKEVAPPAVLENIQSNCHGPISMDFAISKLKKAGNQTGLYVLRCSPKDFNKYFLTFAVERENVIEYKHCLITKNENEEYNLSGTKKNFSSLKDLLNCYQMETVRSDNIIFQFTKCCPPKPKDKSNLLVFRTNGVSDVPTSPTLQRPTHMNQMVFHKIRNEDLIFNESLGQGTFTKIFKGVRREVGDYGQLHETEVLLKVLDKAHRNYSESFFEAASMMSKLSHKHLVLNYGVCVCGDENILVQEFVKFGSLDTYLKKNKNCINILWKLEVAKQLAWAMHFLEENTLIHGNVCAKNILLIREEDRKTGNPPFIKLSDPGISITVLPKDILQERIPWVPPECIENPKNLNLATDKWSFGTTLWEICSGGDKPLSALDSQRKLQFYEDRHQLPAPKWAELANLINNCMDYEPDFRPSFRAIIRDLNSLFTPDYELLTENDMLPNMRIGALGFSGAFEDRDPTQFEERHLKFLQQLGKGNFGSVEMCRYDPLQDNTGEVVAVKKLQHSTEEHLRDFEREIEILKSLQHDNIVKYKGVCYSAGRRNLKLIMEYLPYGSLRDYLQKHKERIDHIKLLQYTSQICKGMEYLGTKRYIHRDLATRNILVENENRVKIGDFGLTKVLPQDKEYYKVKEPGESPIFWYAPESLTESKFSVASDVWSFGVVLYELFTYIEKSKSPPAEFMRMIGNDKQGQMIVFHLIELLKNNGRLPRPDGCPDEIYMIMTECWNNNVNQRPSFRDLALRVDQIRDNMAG
row,Sequence,phosphorylation enrichment
1,KKFVPYFDLFM [IPO5_Y530_E525K_YF],1.14
2,PDNKPYIFKVF [PIK3AP1_Y553_E551K],1.03
3,LAVVDYIRRQK [ATM_Y1915_M1916I],0.855
4,LDAFIYDAALL [GRIN2A_Y730_V734L],1.33
5,TFWKKYCTFWK [CCDC70_Y125_R126C],0.844
6,FITVGYVDDTQ [HLA-B_Y51_S48T],0.877
7,KHGGNYVPAPK [OSCP1_Y237],0.692
8,QNVADYMRYLM [RPL5_Y207],0.994
9,NFATLYLKIFH [PDE6B_Y219_YF],0.953
10,LKLWDYSRGRC [WDR5B_Y239],0.724
11,HHTNEYEFDEL [TGM1_Y134_D132N_YF],0.884
12,YAANYYKLLGN [ROR2_Y646_D644N],0.917
13,TIQIMFGCDVG [HLA-A_Y123_Y123F],1.42
14,EPFKVYRIVPE [IRF8_Y110_YF],0.526
15,PLQHVYKIGGI [EEF1A2_Y254_D252H],1.52
16,VPLATYMQIFK [RPL21_Y30_R32Q_YF],0.836
17,GCKKRYDKDKP [THAP1_Y14_N12K],0.529
18,RAFSWYQHQRA [NDST1_Y714_YF],1.25
19,FLRTGYSVPFG [TGM1_Y370_YF],0.929
20,NMHSTYAKLAA [SEC22B_Y193],0.362
21,ISHVAYCVLGK [TRRAP_Y892_R893C],1.17
22,DFTEAYNSKIK [CLK1_Y305_P307S_YF],0.908
23,TYEYKYPEGSS [TGM4_Y440],1.05
24,SGPRRYTVAAL [TTR_Y125_I127V],0.729
25,TRGLEYIVPLM [CLCN4_Y548_G544R],2.02
26,CPYNLYAAQLS [HGD_Y40_E42A],0.917
27,TRDVNYGWVIR [MT-CYB_Y75_I78V],1.22
28,QEGPEYWDLET [HLA-A_Y83_Q86L],2.02
29,RRSKMYLKTRS [LPL_Y329_S325R],0.889

# Target: MERTK (UniProt Q12866)
# Assay: as above
# Sequence of MERTK (Q12866 whole entry, looked up): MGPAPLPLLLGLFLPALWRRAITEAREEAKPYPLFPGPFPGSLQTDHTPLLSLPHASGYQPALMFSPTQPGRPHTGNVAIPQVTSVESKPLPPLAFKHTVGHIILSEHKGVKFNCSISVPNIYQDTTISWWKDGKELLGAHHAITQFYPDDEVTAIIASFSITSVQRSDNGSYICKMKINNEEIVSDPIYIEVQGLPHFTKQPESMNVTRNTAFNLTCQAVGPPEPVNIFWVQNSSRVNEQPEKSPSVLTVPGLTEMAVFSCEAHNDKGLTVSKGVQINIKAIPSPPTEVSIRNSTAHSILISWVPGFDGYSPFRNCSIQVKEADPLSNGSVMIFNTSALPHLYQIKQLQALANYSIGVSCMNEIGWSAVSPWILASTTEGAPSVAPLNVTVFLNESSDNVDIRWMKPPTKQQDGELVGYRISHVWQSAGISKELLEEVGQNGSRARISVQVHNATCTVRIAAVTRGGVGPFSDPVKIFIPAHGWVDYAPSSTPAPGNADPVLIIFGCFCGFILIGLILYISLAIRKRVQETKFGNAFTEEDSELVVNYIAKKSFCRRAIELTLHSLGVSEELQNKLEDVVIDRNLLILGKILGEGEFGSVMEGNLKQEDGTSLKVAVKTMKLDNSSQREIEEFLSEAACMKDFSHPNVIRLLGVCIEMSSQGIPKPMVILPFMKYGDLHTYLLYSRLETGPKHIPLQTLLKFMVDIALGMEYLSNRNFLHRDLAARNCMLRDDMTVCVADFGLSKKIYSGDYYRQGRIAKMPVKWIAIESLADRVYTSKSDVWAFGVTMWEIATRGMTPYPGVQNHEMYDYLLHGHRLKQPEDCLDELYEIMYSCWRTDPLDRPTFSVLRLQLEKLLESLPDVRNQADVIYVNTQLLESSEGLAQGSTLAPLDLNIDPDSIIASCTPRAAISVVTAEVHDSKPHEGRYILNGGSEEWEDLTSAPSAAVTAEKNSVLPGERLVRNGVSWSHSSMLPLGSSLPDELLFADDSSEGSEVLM
row,Sequence,phosphorylation enrichment
1,KKFVPYFDLFM [IPO5_Y530_E525K_YF],0.645
2,PDNKPYIFKVF [PIK3AP1_Y553_E551K],0.428
3,LAVVDYIRRQK [ATM_Y1915_M1916I],0.863
4,LDAFIYDAALL [GRIN2A_Y730_V734L],2.28
5,TFWKKYCTFWK [CCDC70_Y125_R126C],0.402
6,FITVGYVDDTQ [HLA-B_Y51_S48T],0.482
7,KHGGNYVPAPK [OSCP1_Y237],0.439
8,QNVADYMRYLM [RPL5_Y207],0.523
9,NFATLYLKIFH [PDE6B_Y219_YF],0.457
10,LKLWDYSRGRC [WDR5B_Y239],0.736
11,HHTNEYEFDEL [TGM1_Y134_D132N_YF],0.607
12,YAANYYKLLGN [ROR2_Y646_D644N],0.832
13,TIQIMFGCDVG [HLA-A_Y123_Y123F],0.503
14,EPFKVYRIVPE [IRF8_Y110_YF],0.453
15,PLQHVYKIGGI [EEF1A2_Y254_D252H],0.739
16,VPLATYMQIFK [RPL21_Y30_R32Q_YF],0.613
17,GCKKRYDKDKP [THAP1_Y14_N12K],0.6
18,RAFSWYQHQRA [NDST1_Y714_YF],0.424
19,FLRTGYSVPFG [TGM1_Y370_YF],0.561
20,NMHSTYAKLAA [SEC22B_Y193],0.38
21,ISHVAYCVLGK [TRRAP_Y892_R893C],1.14
22,DFTEAYNSKIK [CLK1_Y305_P307S_YF],0.464
23,TYEYKYPEGSS [TGM4_Y440],0.414
24,SGPRRYTVAAL [TTR_Y125_I127V],0.395
25,TRGLEYIVPLM [CLCN4_Y548_G544R],0.457
26,CPYNLYAAQLS [HGD_Y40_E42A],5.62
27,TRDVNYGWVIR [MT-CYB_Y75_I78V],1.12
28,QEGPEYWDLET [HLA-A_Y83_Q86L],0.742
29,RRSKMYLKTRS [LPL_Y329_S325R],0.659

# Tested on: c-Abl (mouse)
# Assay: as above
row,Sequence,phosphorylation enrichment
1,KKFVPYFDLFM [IPO5_Y530_E525K_YF],0.773
2,PDNKPYIFKVF [PIK3AP1_Y553_E551K],0.79
3,LAVVDYIRRQK [ATM_Y1915_M1916I],1.37
4,LDAFIYDAALL [GRIN2A_Y730_V734L],4.39
5,TFWKKYCTFWK [CCDC70_Y125_R126C],0.752
6,FITVGYVDDTQ [HLA-B_Y51_S48T],0.898
7,KHGGNYVPAPK [OSCP1_Y237],0.822
8,QNVADYMRYLM [RPL5_Y207],0.682
9,NFATLYLKIFH [PDE6B_Y219_YF],0.83
10,LKLWDYSRGRC [WDR5B_Y239],0.643
11,HHTNEYEFDEL [TGM1_Y134_D132N_YF],0.624
12,YAANYYKLLGN [ROR2_Y646_D644N],0.579
13,TIQIMFGCDVG [HLA-A_Y123_Y123F],1.01
14,EPFKVYRIVPE [IRF8_Y110_YF],0.43
15,PLQHVYKIGGI [EEF1A2_Y254_D252H],0.766
16,VPLATYMQIFK [RPL21_Y30_R32Q_YF],0.361
17,GCKKRYDKDKP [THAP1_Y14_N12K],0.621
18,RAFSWYQHQRA [NDST1_Y714_YF],1.09
19,FLRTGYSVPFG [TGM1_Y370_YF],0.945
20,NMHSTYAKLAA [SEC22B_Y193],0.47
21,ISHVAYCVLGK [TRRAP_Y892_R893C],1.03
22,DFTEAYNSKIK [CLK1_Y305_P307S_YF],0.795
23,TYEYKYPEGSS [TGM4_Y440],0.777
24,SGPRRYTVAAL [TTR_Y125_I127V],0.635
25,TRGLEYIVPLM [CLCN4_Y548_G544R],0.89
26,CPYNLYAAQLS [HGD_Y40_E42A],0.857
27,TRDVNYGWVIR [MT-CYB_Y75_I78V],0.841
28,QEGPEYWDLET [HLA-A_Y83_Q86L],1.56
29,RRSKMYLKTRS [LPL_Y329_S325R],0.578
